# Test results reported in paper PMC5837041 (Molecular cell, 2017).
# Changes are numbered by the printed parent chain. Numbers in names are those of the source.
# T1: Vms1 (Vms1^1-417) (Saccharomyces cerevisiae, UniProt Q04311)
# T1 sequence (Q04311 1-417): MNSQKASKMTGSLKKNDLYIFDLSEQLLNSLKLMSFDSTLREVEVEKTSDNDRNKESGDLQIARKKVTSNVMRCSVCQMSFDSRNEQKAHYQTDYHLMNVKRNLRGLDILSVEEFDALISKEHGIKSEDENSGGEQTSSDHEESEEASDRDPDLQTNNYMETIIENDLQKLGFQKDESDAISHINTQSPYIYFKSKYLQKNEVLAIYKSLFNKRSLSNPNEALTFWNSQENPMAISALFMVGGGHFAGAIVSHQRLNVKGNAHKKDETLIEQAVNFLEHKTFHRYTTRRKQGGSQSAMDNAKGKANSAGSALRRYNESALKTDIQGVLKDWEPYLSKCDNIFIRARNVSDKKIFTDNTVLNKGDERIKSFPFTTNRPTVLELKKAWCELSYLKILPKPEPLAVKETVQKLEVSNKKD
# T2: C-terminal fragment of PreScission-cleaved His10-Vms1(1-182-PP-417)-HA (S. cerevisiae, UniProt Q04311 183-417)
# T2 sequence (looked up): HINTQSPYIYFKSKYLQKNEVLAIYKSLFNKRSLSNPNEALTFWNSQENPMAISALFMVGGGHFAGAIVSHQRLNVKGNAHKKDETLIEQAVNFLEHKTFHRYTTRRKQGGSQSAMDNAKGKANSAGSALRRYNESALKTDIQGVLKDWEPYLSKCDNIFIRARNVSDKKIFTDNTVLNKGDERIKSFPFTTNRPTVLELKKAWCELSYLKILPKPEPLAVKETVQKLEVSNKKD
# T3: C-terminal fragment of PreScission-cleaved His10-Vms1(1-182-PP-417, C387A, E25C, S228C)-HA (S. cerevisiae, UniProt Q04311 183-417, S228C | C387A)
# T3 sequence (looked up): T2 sequence (looked up) with S46C, C205A
# T4: C-terminal fragment of PreScission-cleaved His10-Vms1(1-182-PP-417, C387A, K32C, T224C)-HA (S. cerevisiae, UniProt Q04311 183-417, T224C | C387A)
# T4 sequence (looked up): T2 sequence (looked up) with T42C, C205A
# T5: C-terminal fragment of PreScission-cleaved His10-Vms1(1-182-PP-417, C387A, K32C, N218C)-HA (S. cerevisiae, UniProt Q04311 183-417, N218C | C387A)
# T5 sequence (looked up): T2 sequence (looked up) with N36C, C205A
# B1: N-terminal fragment of PreScission-cleaved His10-Vms1(1-182-PP-417)-HA (domain or fragment, S. cerevisiae, UniProt Q04311 1-182, looked up)
# chain: MNSQKASKMTGSLKKNDLYIFDLSEQLLNSLKLMSFDSTLREVEVEKTSDNDRNKESGDLQIARKKVTSNVMRCSVCQMSFDSRNEQKAHYQTDYHLMNVKRNLRGLDILSVEEFDALISKEHGIKSEDENSGGEQTSSDHEESEEASDRDPDLQTNNYMETIIENDLQKLGFQKDESDAIS
# B2: N-terminal fragment of PreScission-cleaved His10-Vms1(1-182-PP-417, C387A, E25C, S228C)-HA (domain or fragment, S. cerevisiae, UniProt Q04311 1-182, looked up)
# chain: B1 chain with E25C
# B3: N-terminal fragment of PreScission-cleaved His10-Vms1(1-182-PP-417, C387A, K32C, T224C or N218C)-HA (domain or fragment, S. cerevisiae, UniProt Q04311 1-182, looked up)
# chain: B1 chain with K32C
# Experiments:
# [1] = target: T1, Vms1 (Vms1^1-417); experiment: lipid blot on nitrocellulose; type: binding; settings: TBS pH 7.5, 4 °C, 3% BSA (blot); competitive with LRS for the MTD
# [2] = target: T2, C-terminal fragment of …; experiment: SEC
# [3] = target: T3, C-terminal fragment of …; experiment: cross-linking
# [4] = target: T4, C-terminal fragment of …; experiment: cross-linking
# [5] = target: T5, C-terminal fragment of …; experiment: cross-linking
molecule,measurement,setting,value
"CC(C)[C@@H](C)/C=C/[C@@H](C)[C@H]1CC[C@@H]2[C@]1(C)CC[C@H]1[C@]23C=C[C@]2(C[C@@H](O)CC[C@]12C)OO3 [EP, ergosterol peroxide]",lipid blot on nitrocellulose; liposome floatation assay,[1],Vms1 displayed comparable binding to nitrocellulose-spotted commercial EP and the purified C28H44O3
B1,binding result,[2],binds
B2,binding result,[3],binds
B3,binding result,[4],binds
same,binding result,[5],binds
